According to the Immune Epitope Database (IEDB):

What was measured:
HLA-A*02:03 = experiment: IEDB peptide-MHC binding, purified MHC/competitive/radioactivity; filed as Kd, often an IC50 or EC50 that approximates it; ≥ and ≤ were set here for values at or beyond the usual limits of such assays; conditions: source organism: Homo sapiens
HLA-A*02:06 = experiment: as above
HLA-A*68:02 = experiment: as above
HLA-B*18:01 [1] = experiment: IEDB peptide-MHC binding, purified MHC/direct/fluorescence; filed as Kd, often an IC50 or EC50 that approximates it; ≥ and ≤ were set here for values at or beyond the usual limits of such assays; conditions: source organism: Yellow fever virus 17D
HLA-B*18:01 [2] = experiment: IEDB peptide-MHC binding, purified MHC/competitive/radioactivity; filed as Kd, often an IC50 or EC50 that approximates it; ≥ and ≤ were set here for values at or beyond the usual limits of such assays; conditions: source organism: SARS coronavirus Tor2
HLA-B*40:01 = experiment: as above; conditions: source organism: SARS coronavirus Tor2
HLA-B*40:02 = experiment: as above; conditions: source organism: SARS coronavirus Tor2
HLA-B*44:02 = experiment: as above; conditions: source organism: SARS coronavirus Tor2
HLA-B*44:03 = experiment: as above; conditions: source organism: SARS coronavirus Tor2
HLA-B*45:01 = experiment: as above; conditions: source organism: SARS coronavirus Tor2
HLA-B*08:01 = experiment: as above
HLA-B*07:02 = experiment: as above
HLA-B*35:01 = experiment: as above
HLA-B*51:01 = experiment: as above
HLA-B*53:01 = experiment: as above
HLA-B*54:01 = experiment: as above
HLA-B*46:01 = experiment: IEDB peptide-MHC binding, purified MHC/direct/fluorescence; filed as Kd, often an IC50 or EC50 that approximates it; ≥ and ≤ were set here for values at or beyond the usual limits of such assays; conditions: source organism: Yellow fever virus
[3] = source organism: Vaccinia virus WR
[4] = source organism: SARS coronavirus Tor2
[5] = source organism: Dengue virus 3 Martinique/1243/1999
[6] = source organism: Triticum aestivum

Question: Which results are given for RLFTKVKPLL?
Answer: Kd (HLA-A*02:03): 96 nM; Kd (HLA-A*02:06; source organism: Homo sapiens): 4040 nM; Kd (HLA-A*68:02; source organism: Homo sapiens): 13600 nM

Question: For SEQGEFKLL, which Kd (HLA-B*18:01 [1]) is on record?
Answer: The Kd was 875 nM.

Question: SEYKGPVTDV was tested. Which Kd (HLA-B*18:01 [2]) did it give?
Answer: Its Kd is at least 70500 nM.

Question: What about the Kd (HLA-B*40:01) of the same sequence?
Answer: The Kd was 1 µM.

Question: And the Kd (HLA-B*40:02)?
Answer: Its Kd is 22.9 nM.

Question: And the Kd (HLA-B*44:02)?
Answer: Its Kd is 17100 nM.

Question: And the Kd (HLA-B*44:03)?
Answer: Its Kd is 795 nM.

Question: What about the Kd (HLA-B*45:01) of the same sequence?
Answer: The Kd was 37.2 nM.

Question: How did the Kd (HLA-B*08:01; [3]) turn out when SFKFRPGSL was run?
Answer: Its Kd is 2.98 nM.

Question: For SIFIRMLIL, which Kd (HLA-B*08:01; source organism: Vaccinia virus Copenhagen) is on record?
Answer: Its Kd is 10.1 nM.

Question: Which results are given for SPNLAWPLIV?
Answer: Kd (HLA-B*07:02; [4]): 0.123 µM; Kd (HLA-B*35:01; [4]): 887 nM; Kd (HLA-B*51:01; [4]): 2790 nM; Kd (HLA-B*53:01; [4]): 1.66 µM; Kd (HLA-B*54:01; [4]): 0.556 µM

Question: How did the Kd (HLA-B*08:01; [3]) turn out when SRISRFANL was run?
Answer: The Kd was 19.6 nM.

Question: How did the Kd (HLA-B*18:01 [2]) turn out when STFVSAARQG was run?
Answer: The Kd was 8680 nM.

Question: And the Kd (HLA-B*40:01)?
Answer: The Kd was 8.59 µM.

Question: What about the Kd (HLA-B*40:02) of the same sequence?
Answer: Its Kd is 535 nM.

Question: What about the Kd (HLA-B*44:02) of the same sequence?
Answer: The Kd was 237 nM.

Question: And the Kd (HLA-B*44:03)?
Answer: The Kd was 394 nM.

Question: What about the Kd (HLA-B*45:01) of the same sequence?
Answer: The Kd was 2010 nM.

Question: With TASLVMLLV as the sequence, how does the Kd (HLA-A*68:02; source organism: Dengue virus 4 Dominica/814669/1981) read?
Answer: The Kd was 82.5 nM.

Question: How did the Kd (HLA-A*68:02; source organism: Dengue virus 4 Philippines/H241/1956) turn out when TSAWVMYGT was run?
Answer: The Kd was 1.7 nM.

Question: Which Kd (HLA-A*02:06; [5]) does the source give for TVVVGDIIGV here?
Answer: The Kd was 2.44 nM.

Question: And the Kd (HLA-A*68:02; [5])?
Answer: The Kd was 1.87 nM.

Question: How did the Kd (HLA-B*46:01) turn out when VLIEVNPPF was run?
Answer: Its Kd is at least 20 µM.

Question: How did the Kd (HLA-B*08:01; source organism: Dengue virus 2 Peru/IQT2913/1996) turn out when VSRQEKGKSL was run?
Answer: The Kd was 967 nM.

Question: With YAKSKRMAE as the sequence, how does the Kd (HLA-B*08:01; [3]) read?
Answer: The Kd was 31.1 nM.

Question: YENAFLPFT was tested. Which Kd (HLA-B*18:01 [2]) did it give?
Answer: Its Kd is 112 nM.

Question: And the Kd (HLA-B*40:01)?
Answer: Its Kd is 6.12 µM.

Question: What about the Kd (HLA-B*40:02) of the same sequence?
Answer: The Kd was 36.4 nM.

Question: And the Kd (HLA-B*44:02)?
Answer: The Kd was 1650 nM.

Question: And the Kd (HLA-B*44:03)?
Answer: Its Kd is 857 nM.

Question: And the Kd (HLA-B*45:01)?
Answer: Its Kd is 93.6 nM.

Question: Which results are given for YEQVVMDYL?
Answer: Kd (HLA-B*18:01 [2]): 349 nM; Kd (HLA-B*40:01): 0.000609 µM; Kd (HLA-B*40:02): 30.2 nM; Kd (HLA-B*44:02): 371 nM; Kd (HLA-B*44:03): 298 nM; Kd (HLA-B*45:01): 3780 nM

Question: YPSGQGSF was tested. Which Kd (HLA-B*07:02; [6]) did it give?
Answer: The Kd was 11.1 µM.

Question: What about the Kd (HLA-B*35:01; [6]) of the same sequence?
Answer: The Kd was 4880 nM.

Question: And the Kd (HLA-B*51:01; [6])?
Answer: Its Kd is 998 nM.

Question: And the Kd (HLA-B*53:01; [6])?
Answer: Its Kd is 5.15 µM.

Question: What about the Kd (HLA-B*54:01; [6]) of the same sequence?
Answer: The Kd was 13.3 µM.
